Laboratory results as given in patent US20230235080A1, “TROPHOBLAST CELL-SURFACE ANTIGEN-2 (TROP-2) ANTIBODIES” (Bionecure Therapeutics, Inc., priority 2020, published 2023).

Columns and labels:
[1] = target: T1, human Trop-2-ECD-6His fusion protein (human, UniProt P09758 27-274); assay: BLI (Octet), antibody at 8 ug/ml, human Trop-2ECD-6His at 3.125-50 nM
T1 construct: Expressed in a human 293 cell line; also called huTrop-2; human Trop-2 antigen
T1 sequence: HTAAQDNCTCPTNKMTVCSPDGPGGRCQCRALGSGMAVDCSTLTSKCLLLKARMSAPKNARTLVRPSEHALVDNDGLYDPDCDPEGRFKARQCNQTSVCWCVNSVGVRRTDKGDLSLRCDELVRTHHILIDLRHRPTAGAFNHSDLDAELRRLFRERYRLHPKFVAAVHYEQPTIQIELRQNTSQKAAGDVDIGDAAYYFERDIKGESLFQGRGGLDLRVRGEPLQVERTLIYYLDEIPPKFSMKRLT
Description: The binding affinity of the purified anti-Trop-2 IgGs to human Trop-2 protein were determined by Octet system based on Bio-Layer Interferometry (BLI) technique. BLI is a layer of molecules attached to the tip of an optic fiber which creates an interference pattern at the detector, any change in the number of molecules bound causes a measured shift in the pattern. Octet system enables real-time analysis for determination of affinity and kinetics from biomolecular interactions in 96-well microplates. […] A1X4 or A1,2X4 antibody was diluted and added to the assigned wells at a final concentration 8 µg/ml. The plate was put in the Octet system and assay was started. The data was analyzed using the Octet Data Acquisition Software (fortebio data analysis 10.0) to calculate an association rate constant Kon, a dissociation rate constant Koff, and a dissociation constant Kd (Kd = Koff/Kon).

[2] = target: T2, mouse Trop-2-His (mouse, UniProt Q8BGV3 25-270); assay: ELISA on coated antigen, one antibody dilution (concentration not given), detected by GAH-HRP, OD450nm
T2 sequence (looked up): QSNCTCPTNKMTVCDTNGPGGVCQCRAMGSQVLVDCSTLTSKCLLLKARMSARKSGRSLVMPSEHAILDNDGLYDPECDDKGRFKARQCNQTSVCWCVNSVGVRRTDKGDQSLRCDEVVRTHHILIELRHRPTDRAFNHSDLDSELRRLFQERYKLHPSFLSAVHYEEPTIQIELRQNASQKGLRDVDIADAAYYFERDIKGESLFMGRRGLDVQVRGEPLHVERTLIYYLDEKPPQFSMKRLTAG
Description: (§1) The cross-reactivity of purified IgGs to the Trop-2 antigens from different species was tested by ELISA. In this experiment, a microtiter plate was coated overnight at 4° C. with 50 µL/well of 1 µg/mL human Trop-2ECD-6His, mouse Trop-2-His, cynomolgus Trop-2-His, human EPCAM-His, and a non-related protein. The plate was washed and blocked for 1 hr at 37° C., and then washed with wash buffer. Purified anti-Trop-2 antibodies appropriately diluted in PBS were added to wells and incubated for 1 hour at 37° C. After washing, bound antibodies were detected using HRP-conjugated goat-anti-human IgG antibody. Color development and absorbance at OD450 nm were read. A non-specific human IgG1 was included as a negative control, while hRS7 was used as a positive control.

[3] = target: T3, human EPCAM-His (human, UniProt P16422 24-265); assay: as above
T3 construct: also called hEPCAM
T3 sequence (looked up): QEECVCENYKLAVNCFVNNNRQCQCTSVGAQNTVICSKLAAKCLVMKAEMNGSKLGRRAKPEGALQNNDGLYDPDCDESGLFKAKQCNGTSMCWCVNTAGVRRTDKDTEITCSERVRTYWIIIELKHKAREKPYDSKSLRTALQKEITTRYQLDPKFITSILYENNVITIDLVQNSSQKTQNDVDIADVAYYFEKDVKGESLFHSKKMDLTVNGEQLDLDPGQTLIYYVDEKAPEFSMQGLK
Description: as §1

[4] = target: T4, human Trop-2 on Trop-2 positive cancer cells (human, UniProt P09758 27-323); assay: flow cytometry on MDA-MB-468 cells, MFI at 4 °C against the antibody concentration (about 400 to 10000 ng/ml); Kd (µg/ml) printed beside the legend
T4 construct: Endogenous Trop-2 of human tumour cell lines
T4 sequence (looked up): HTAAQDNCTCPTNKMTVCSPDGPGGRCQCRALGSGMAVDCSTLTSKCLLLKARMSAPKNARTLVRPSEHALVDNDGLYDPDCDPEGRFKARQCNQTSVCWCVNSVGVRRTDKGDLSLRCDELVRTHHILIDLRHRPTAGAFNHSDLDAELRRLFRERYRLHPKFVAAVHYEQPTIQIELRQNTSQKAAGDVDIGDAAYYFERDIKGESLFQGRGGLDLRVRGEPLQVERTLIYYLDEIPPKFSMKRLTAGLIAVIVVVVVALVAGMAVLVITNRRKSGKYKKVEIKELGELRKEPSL
Description: Internalizationi and degradation of anti-Trop-2 antibodies was measured by flow cytometry. In this study, fluorescent-conjugated secondary antibodies were used to detect the primary antibodies left on after internalization.
Next, either hRS7, or A1X4, or A1,2X4 antibody was added to cells in FACS buffer at concentrations of 400, 1000, 3000, or 10000 ng/ml, respectively, and incubated for 30 minutes at 4° C. After incubation, the cells were washed three times with FACS buffer to removed unbound antibody. The cells were then incubated at 37° C. with 5% CO₂ for antibody internalization. After 2 hours, the cells were dissociated with Trypsin and stained with fluorescent-conjugated goat anti-human IgG secondary antibodies for 30 minutes on ice in dark before being analyzed using Beckman flow cytometry system. The fluorescent intensity and cell binding percentage at each time point were analyzed by Beckman flow cytometric software. The amount of anti-Trop-2 antibodies internalized into cells at each concentration was determined using the following formula: % internalization rate = 100 × (MFI₄°C- MFI₃₇°C) / MFI₄°C

- Kd [1]: 4.09 nM
- koff [1]: 0.000844 s⁻¹
- binding result [2]: no binding
- binding result [3]: no binding
- Kd [4]: 0.93 µg/mL
B1: humanized IgG A1,2X4 (antibody, V domains shown)
VH: QVQLQESGPGLVKPSETLSLTCTVSGFSLTSYGVNWIRQPPGKGLEWIGVMWAGGSTNYNSALMSRLTISKDTSKNQFSLKLSSVTAADTAVYYCARDENWDGAWFAYWGQGTLVTVSS
VL: DIVMTQSPDSLAVSLGERATINCKSSQSLLNSGTRKNYLAWYQQKPGQPPKLLISWASSRESGVPDRFSGSGSGTDFTLTISSLQAEDVAVYYCKQSYNLFTFGGGTKVEIKR
notes: Full-length IgG expressed in 293 cells; also called IgG HuA(1,2)/Lu(X4)
